In patent publication US20180237536A1 (INNATE PHARMA, published 2018):

T1: recombinant human CD73-His extracellular domain protein (soluble dimer) (human, UniProt P21589 27-547)
T1 sequence: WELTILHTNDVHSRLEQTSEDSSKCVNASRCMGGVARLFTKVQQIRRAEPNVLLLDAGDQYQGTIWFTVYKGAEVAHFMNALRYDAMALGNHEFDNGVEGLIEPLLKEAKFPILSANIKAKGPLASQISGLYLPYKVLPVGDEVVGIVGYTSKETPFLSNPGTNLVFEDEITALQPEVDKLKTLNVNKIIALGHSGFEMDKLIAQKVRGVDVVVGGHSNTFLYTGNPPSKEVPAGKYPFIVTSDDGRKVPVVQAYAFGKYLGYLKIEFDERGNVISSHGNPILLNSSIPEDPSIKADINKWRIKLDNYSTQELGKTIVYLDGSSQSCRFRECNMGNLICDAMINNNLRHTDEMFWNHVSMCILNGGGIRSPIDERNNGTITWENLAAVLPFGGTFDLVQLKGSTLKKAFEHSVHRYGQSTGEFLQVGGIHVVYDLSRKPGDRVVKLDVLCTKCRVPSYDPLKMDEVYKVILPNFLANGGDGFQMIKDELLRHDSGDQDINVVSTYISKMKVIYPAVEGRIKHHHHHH

T2: human CD73 expressed at the cell surface (human, UniProt P21589 27-549)
T2 sequence: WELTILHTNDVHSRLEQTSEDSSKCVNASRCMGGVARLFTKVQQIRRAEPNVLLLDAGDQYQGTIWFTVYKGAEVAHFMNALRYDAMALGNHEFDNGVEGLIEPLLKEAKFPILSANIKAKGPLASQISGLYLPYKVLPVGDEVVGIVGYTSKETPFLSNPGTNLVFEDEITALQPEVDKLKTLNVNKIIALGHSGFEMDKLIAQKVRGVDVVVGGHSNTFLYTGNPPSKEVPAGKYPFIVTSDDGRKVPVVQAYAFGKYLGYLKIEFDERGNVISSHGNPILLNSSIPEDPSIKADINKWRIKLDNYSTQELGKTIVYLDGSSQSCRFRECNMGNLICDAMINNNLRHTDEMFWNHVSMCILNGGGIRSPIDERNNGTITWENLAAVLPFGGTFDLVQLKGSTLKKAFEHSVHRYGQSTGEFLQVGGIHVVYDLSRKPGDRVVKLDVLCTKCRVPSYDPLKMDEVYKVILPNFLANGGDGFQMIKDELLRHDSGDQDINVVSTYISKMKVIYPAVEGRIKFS

T3: human CD73 mutant 3 (human, UniProt P21589 27-549)
T3 construct: Expressed on transfected HEK293T cells
T3 chain: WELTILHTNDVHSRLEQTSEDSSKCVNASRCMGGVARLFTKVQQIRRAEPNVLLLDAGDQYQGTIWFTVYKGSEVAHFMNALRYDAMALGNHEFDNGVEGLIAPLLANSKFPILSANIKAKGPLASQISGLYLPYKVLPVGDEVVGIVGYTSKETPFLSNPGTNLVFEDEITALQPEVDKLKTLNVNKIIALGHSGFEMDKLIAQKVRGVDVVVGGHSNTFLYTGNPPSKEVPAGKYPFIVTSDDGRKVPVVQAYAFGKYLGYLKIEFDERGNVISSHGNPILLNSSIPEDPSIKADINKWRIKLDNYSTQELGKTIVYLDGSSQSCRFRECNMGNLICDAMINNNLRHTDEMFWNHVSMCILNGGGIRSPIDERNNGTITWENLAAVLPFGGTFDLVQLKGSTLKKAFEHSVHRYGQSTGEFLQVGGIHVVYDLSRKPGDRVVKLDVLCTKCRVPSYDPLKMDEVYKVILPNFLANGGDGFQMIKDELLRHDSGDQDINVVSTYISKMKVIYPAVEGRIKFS


Columns and labels:
[1] = target: T1, recombinant human CD73-His …; test: cell-based or functional assay
[2] = target: T2, human CD73 expressed at the cell surface; test: cell-based or functional assay
[3] = target: T4, cynomolgus CD73 expressed on recombinant host cells (cynomolgus); test: flow cytometry titration on cynomolgus CD73-expressing recombinant host cells, PE secondary, median of fluorescence
T4 construct: whole, on cells; also called cynoCD73

[4] = target: T2, human CD73 expressed at the cell surface; test: cell-based or functional assay; remark: listed apart in the source
[5] = target: T2, human CD73 expressed at the cell surface; test: flow cytometry titration on human CD73-expressing recombinant host cells, PE secondary, median of fluorescence
Protocol: MDA-MB-231 cells are available from ATCC (reference HTB-26). 10⁵ cells resuspended in PBS/0.2% BSA/0.02% NaN3 (named “staining buffer”) are distributed into round bottom 96W-microplates. Dose-range of anti-CD73 antibodies was added to the plates and cells are incubated for 45 min at 4° C. Cells were washed three times in staining buffer by spinning plates at 400 g for 3 min at 4° C. PE-coupled goat anti-mouse or goat anti-human IgG Fc fragment secondary antibodies (Beckman Coulter) diluted in staining buffer were added to the cells and plates are incubated for 30 additional minutes at 4° C. Cells were washed three times as described above and analyzed on an Accury C6 flow cytometer equipped with an HTFC plate reader.
Median of fluorescence vs. antibodies concentration was plotted on graphs and EC50 is calculated using GraphPad Prism program.

[6] = target: T3, human CD73 mutant 3; test: flow cytometry on transfected HEK293T cells
Protocol: CD73 mutants are generated by PCR. The sequences amplified are run on agarose gel and purified using the Macherey Nagel PCR Clean-Up Gel Extraction kit (reference 740609). The purified PCR products generated for each mutant are then ligated into an expression vector, with the ClonTech InFusion system. The vectors containing the mutated sequences are prepared as Miniprep and sequenced. After sequencing, the vectors containing the mutated sequences are prepared as Midiprep using the Promega PureYield™ Plasmid Midiprep System. HEK293T cells are grown in DMEM medium (Invitrogen), transfected with vectors using Invitrogen's Lipofectamine 2000 and incubated at 37° C. in a CO2 incubator for 24 hours prior to testing for transgene expression
Anti-CD73 antibodies are tested for their binding to each mutant by flow cytometry. A first experiment is performed to determine antibodies that lose their binding to one or several mutants at one concentration. To confirm a loss of binding, titration of antibodies is done on antibodies for which binding seemed to be affected by the CD73 mutations (1-0.1-0.01-0.001 μg/ml). Antibodies 11E1, 8C7, 3C12 or 6E1 lost binding to mutant 3 of CD73, but not to any other mutant. […] Antibody 7G2 lost binding to mutants 5, 6 and 7 (but not mutants 2 or 3).

Binder | EC50 for CD73 blockade (enzymatic activity of soluble recombinant CD73-his, Cell Titer Glo) [1] | EC50 for neutralization of cellular CD73 enzymatic activity (mean over MDA-MB-231, H292, A375) [2] | EC70 for neutralization of cellular CD73 enzymatic activity (mean over MDA-MB-231, H292, A375) [2] | EC100 for neutralization of cellular CD73 enzymatic activity (mean over MDA-MB-231, H292, A375) [2] | EC50 (read off the curve) [3] | EC50 for neutralization of enzymatic activity of cellular CD73 (MDA-MB-231, free phosphate from AMP) [4] | EC50 (read off the curve) [5] | binding result [6]
antibody 11E1 (antibody, human IgG1, V domains shown, also called 1E11) VH: EIQLQQSGPELVKPGASVKVSCKASGYAFTSYNMYWVKQSHGKSLEWIGYIDPYNGGTSYNQKFKGKATLTVDKSSSTAYMHLNSLTSEDSAVYYCARGYGNYKAWFAYWGQGTLVTVSA VL: DAVMTQTPKFLLVSAGDRVTITCKASQSVTNDVAWYQQKPGQSPKLLIYYASNRYTGVPDRFTGSGYGTDFTFTISTVQAEDLAVYFCQQDYSSLTFGAGTKLELK | 0.41 µg/mL | 0.1 µg/mL | 0.15 µg/mL | 0.52 µg/mL | ~0.5 µg/mL | 0.195 µg/mL | ~0.5 µg/mL | 
antibody 8C7 (antibody, human IgG1, V domains shown) VH: EVQLQQSGPELVKPGASVKVSCKASGYAFASYNMNWVKQSHGKSLDWIGYIDPYNGGSSYNLTFKGKATLTVDKSSTTAYMHLNSLTSEDSAVYYCARGYGNYKAWFAYWGQGTLVTVSA VL: SIVMTPTPKFLLVSAGDRVTITCKASQSVSNDVAWYQQKPGQSPKLLIYYASTRYTGVPDRFTGSGYGTDFTFTISTVQAEDLAVYFCQQDYSSLTFGAGTKLELKR | 1.29 µg/mL | 0.21 µg/mL | 0.46 µg/mL | 0.72 µg/mL |  | 0.319 µg/mL |  | no binding (tested: 1-0.1-0.01-0.001 µg/ml)

Continued, in another order:

EC50 for CD73 blockade (enzymatic activity of soluble recombinant CD73-his, Cell Titer Glo) [1] | EC50 for neutralization of cellular CD73 enzymatic activity (mean over MDA-MB-231, H292, A375) [2] | EC70 for neutralization of cellular CD73 enzymatic activity (mean over MDA-MB-231, H292, A375) [2] | EC100 for neutralization of cellular CD73 enzymatic activity (mean over MDA-MB-231, H292, A375) [2] | EC50 (read off the curve) [3] | EC50 for neutralization of enzymatic activity of cellular CD73 (MDA-MB-231, free phosphate from AMP) [4] | EC50 (read off the curve) [5] | Binder | binding result [6]
0.41 µg/mL | 0.14 µg/mL | 0.18 µg/mL | 0.3 µg/mL |  | 0.21 µg/mL |  | antibody 3C12 (antibody, human IgG1, V domains shown) VH: QIQLQQSGPELVKPGASVKVSCKASGYAFASYNMNWVKQSHGKSLDWIGYIDPYNGGSSYNLTFKGKATLTVDKSSTTAYMHLNSLTSEDSAVYYCARGYGNYKAWFAYWGQGTLVTVSA VL: DVVMTQTPKFLLVSAGDRVTITCKASQSVSNDVAWYQQKPGQSPKLLIYYASTRYTGVPDRFTGSGYGTDFTFTISTVQAEDLAVYFCQQDYSSLTFGAGTKLELKR | 
0.33 µg/mL | 0.13 µg/mL | 0.19 µg/mL | 0.68 µg/mL |  | 0.209 µg/mL | ~0.5 µg/mL | antibody 6E1 (antibody, human IgG1, V domains shown) VH: EFQLQQSGPELVKPGASVKVSCKASGYAFTSYNMYWVKQSHGKRLEWIGYIDPYNGGSSYNQKFKGKATLTVDKSSSTAYMHLNNLTSEDSAVYYCARGYNNYKAWFAYWGQGTLVTVSA VL: SIVMTQTPKFLLVSAGDRVTITCKASQSVTNDVAWYQQKPGQSPKLLIYYASNRYTGVPDRFTGSGYGTDFTFTISTMQAEDLAVYFCQQDYSSLTFGAGTKLELK | 
